# pEC50: −log10 of the molar value.
# Target: Flag-Lrp4-mCherry (mouse) (UniProt Q8VI56)
# Assay: flow cytometry on cells
# Sequence of UniProt Q8VI56 (Q8VI56 21-1905): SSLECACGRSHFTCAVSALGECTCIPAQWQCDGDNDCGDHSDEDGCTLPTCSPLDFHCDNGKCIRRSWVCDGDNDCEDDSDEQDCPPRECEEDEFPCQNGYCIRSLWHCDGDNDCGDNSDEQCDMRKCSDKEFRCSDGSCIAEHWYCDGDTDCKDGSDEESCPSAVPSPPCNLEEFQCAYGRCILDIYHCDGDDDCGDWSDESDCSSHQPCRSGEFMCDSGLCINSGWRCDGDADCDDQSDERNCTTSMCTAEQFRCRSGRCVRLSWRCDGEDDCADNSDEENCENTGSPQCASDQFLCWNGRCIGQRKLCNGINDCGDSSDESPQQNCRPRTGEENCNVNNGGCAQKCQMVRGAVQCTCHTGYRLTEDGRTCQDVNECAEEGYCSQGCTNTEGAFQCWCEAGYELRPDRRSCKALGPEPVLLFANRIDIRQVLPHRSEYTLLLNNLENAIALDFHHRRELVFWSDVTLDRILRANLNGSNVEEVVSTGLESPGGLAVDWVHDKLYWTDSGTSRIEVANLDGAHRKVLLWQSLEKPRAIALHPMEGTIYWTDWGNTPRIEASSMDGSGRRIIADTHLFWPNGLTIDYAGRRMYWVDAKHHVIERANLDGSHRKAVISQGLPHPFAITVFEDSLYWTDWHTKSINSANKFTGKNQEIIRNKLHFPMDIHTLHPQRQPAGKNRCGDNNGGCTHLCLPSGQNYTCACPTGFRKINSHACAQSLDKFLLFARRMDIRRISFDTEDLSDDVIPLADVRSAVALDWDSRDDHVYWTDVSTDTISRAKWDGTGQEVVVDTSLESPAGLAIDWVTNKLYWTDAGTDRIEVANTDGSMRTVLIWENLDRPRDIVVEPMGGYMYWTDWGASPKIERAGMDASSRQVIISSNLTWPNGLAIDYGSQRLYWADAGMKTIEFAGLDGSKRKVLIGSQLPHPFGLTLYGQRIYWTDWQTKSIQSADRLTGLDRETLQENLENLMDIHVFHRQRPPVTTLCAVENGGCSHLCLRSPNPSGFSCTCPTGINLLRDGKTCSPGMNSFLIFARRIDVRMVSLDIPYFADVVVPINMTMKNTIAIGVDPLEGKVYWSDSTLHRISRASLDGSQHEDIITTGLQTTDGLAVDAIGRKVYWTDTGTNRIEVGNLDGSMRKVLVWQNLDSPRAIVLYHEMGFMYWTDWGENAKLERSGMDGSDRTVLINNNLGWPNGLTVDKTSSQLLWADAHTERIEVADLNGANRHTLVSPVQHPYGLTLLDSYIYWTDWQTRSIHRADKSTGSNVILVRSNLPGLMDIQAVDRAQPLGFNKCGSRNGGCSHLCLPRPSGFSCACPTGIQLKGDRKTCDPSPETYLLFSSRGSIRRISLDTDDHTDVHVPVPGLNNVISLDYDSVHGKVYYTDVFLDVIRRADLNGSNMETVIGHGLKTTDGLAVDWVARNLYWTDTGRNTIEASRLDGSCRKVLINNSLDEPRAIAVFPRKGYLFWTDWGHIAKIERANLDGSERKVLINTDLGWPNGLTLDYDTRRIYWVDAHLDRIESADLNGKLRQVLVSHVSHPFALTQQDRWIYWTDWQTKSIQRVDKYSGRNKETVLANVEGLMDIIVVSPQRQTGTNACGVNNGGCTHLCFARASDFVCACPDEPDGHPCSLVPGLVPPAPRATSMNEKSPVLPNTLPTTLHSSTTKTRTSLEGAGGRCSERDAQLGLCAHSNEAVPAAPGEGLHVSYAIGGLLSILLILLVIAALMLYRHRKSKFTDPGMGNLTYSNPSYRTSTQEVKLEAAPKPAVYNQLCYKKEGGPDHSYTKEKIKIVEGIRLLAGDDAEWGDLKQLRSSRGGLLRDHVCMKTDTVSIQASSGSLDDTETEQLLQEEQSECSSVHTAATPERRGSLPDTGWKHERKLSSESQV
fold higher affinity of Agrin B8 than of Agrin B0 [fold],pEC50,fold increase of binding with calcium against without calcium [fold],Substance
100,–,–,50 kd C-terminal fragment of Agrin B0 (domain or fragment)
–,8.22,20,50 kd C-terminal fragment of Agrin B8 (domain or fragment)
